Assay results reported in the supplement of paper PMC6757056.
± gives the standard deviation of the averaged measurements.

B1: library; a variant is named by its letters at N, in order (parent)
chain: GCUGUCACCGGUGUAUUACCCUAGUGGUCGACCGGUCUGAUGAGUCUNNNNNNAGACGAAACAGC

Columns and labels:
hypoxanthine [1] = variants of: B1; assay: normalized RNA/DNA level with ligand (relative to sTRSVctl = 100) (log10 (% of sTRSVctl)); ligand: hypoxanthine (xanthine aptamer); higher = less ribozyme self-cleavage, higher mRNA level; details: ligand concentration (+) RNA-Seq: 5 mM, HEK293T, reporter: mCherry (pCS4076), ligand present: yes
Method in brief: (§1)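 Total RNA, extracted with EDTA 72 h after HEK293T cells were transfected with 4 µg per 6-well well of reporter-linked ribozyme switch library plasmids, was reverse-transcribed, amplified, barcoded and sequenced. Ligand, if used, was added 1 h before transfection. RNA level was derived from RNA reads divided by DNA reads and normalized to a spiked-in non-cleaving sequence or to the top sequences. This was multiplied by 100 and log10-transformed, with the top set of 25 sequences and a ≥100 DNA read minimum.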

hypoxanthine [2] = variants of: B1; assay: normalized RNA/DNA level without ligand (relative to sTRSVctl = 100) (log10 (% of sTRSVctl)); ligand: hypoxanthine (xanthine aptamer); higher = less ribozyme self-cleavage, higher mRNA level; details: HEK293T, reporter: mCherry (pCS4076), ligand present: no
Method in brief: as §1

Variant | normalized RNA/DNA level with ligand (log10) (hypoxanthine [1]) | normalized RNA/DNA level without ligand (log10) (hypoxanthine [2])
GCUGUCACCGGUGUAUUACCCUAGUGGUCGACCGGUCUGAUGAGUCUGGUUUCAGACGAAACAGC | 1.946 ± 0.011 | 1.916 ± 0.0058
GCUGUCACCGGUGUAUUACCCUAGUGGUCGACCGGUCUGAUGAGUCUGUAACCAGACGAAACAGC | 1.9577 ± 0.00079 | 1.88 ± 0.089
GCUGUCACCGGUGUAUUACCCUAGUGGUCGACCGGUCUGAUGAGUCUGUAACAAGACGAAACAGC | 1.89 ± 0.0062 | 1.8412 ± 0.00038
GCUGUCACCGGUGUAUUACCCUAGUGGUCGACCGGUCUGAUGAGUCUAUAACCAGACGAAACAGC | 1.943 ± 0.0094 | 1.8816 ± 0.0015
GCUGUCACCGGUGUAUUACCCUAGUGGUCGACCGGUCUGAUGAGUCUCGUUUUAGACGAAACAGC | 1.92 ± 0.073 | 1.833 ± 0.014
GCUGUCACCGGUGUAUUACCCUAGUGGUCGACCGGUCUGAUGAGUCUCGUUUGAGACGAAACAGC | 1.96 ± 0.067 | 1.864 ± 0.0052
GCUGUCACCGGUGUAUUACCCUAGUGGUCGACCGGUCUGAUGAGUCUCUAACAAGACGAAACAGC | 1.88 ± 0.069 | 1.84 ± 0.031
GCUGUCACCGGUGUAUUACCCUAGUGGUCGACCGGUCUGAUGAGUCUCUAACCAGACGAAACAGC | 1.91 ± 0.051 | 1.83 ± 0.038
GCUGUCACCGGUGUAUUACCCUAGUGGUCGACCGGUCUGAUGAGUCUCUAACGAGACGAAACAGC | 1.923 ± 0.017 | 1.88 ± 0.033
GCUGUCACCGGUGUAUUACCCUAGUGGUCGACCGGUCUGAUGAGUCUAUAAAAAGACGAAACAGC | 1.88 ± 0.031 | 1.8 ± 0.04
GCUGUCACCGGUGUAUUACCCUAGUGGUCGACCGGUCUGAUGAGUCUUGUUUCAGACGAAACAGC | 1.98 ± 0.071 | 2.02 ± 0.047
GCUGUCACCGGUGUAUUACCCUAGUGGUCGACCGGUCUGAUGAGUCUUGUUUUAGACGAAACAGC | 1.97 ± 0.069 | 1.888 ± 0.011
GCUGUCACCGGUGUAUUACCCUAGUGGUCGACCGGUCUGAUGAGUCUAGUUUGAGACGAAACAGC | 1.89 ± 0.077 | 1.55 ± 0.035
GCUGUCACCGGUGUAUUACCCUAGUGGUCGACCGGUCUGAUGAGUCUAGUUUUAGACGAAACAGC | 1.97 ± 0.077 | 1.947 ± 0.013
GCUGUCACCGGUGUAUUACCCUAGUGGUCGACCGGUCUGAUGAGUCUAGUUUCAGACGAAACAGC | 1.92 ± 0.033 | 1.93 ± 0.033
GCUGUCACCGGUGUAUUACCCUAGUGGUCGACCGGUCUGAUGAGUCUUUAACAAGACGAAACAGC | 1.93 ± 0.059 | 1.9 ± 0.0046
GCUGUCACCGGUGUAUUACCCUAGUGGUCGACCGGUCUGAUGAGUCUUUAACCAGACGAAACAGC | 1.941 ± 0.0056 | 1.921 ± 0.0067
GCUGUCACCGGUGUAUUACCCUAGUGGUCGACCGGUCUGAUGAGUCUUUAAACAGACGAAACAGC | 1.915 ± 0.008 | 1.791 ± 0.01
GCUGUCACCGGUGUAUUACCCUAGUGGUCGACCGGUCUGAUGAGUCUCUAAAAAGACGAAACAGC | 1.88 ± 0.032 | 1.813 ± 0.0042
GCUGUCACCGGUGUAUUACCCUAGUGGUCGACCGGUCUGAUGAGUCUCUAAAUAGACGAAACAGC | 1.883 ± 0.01 | 1.82 ± 0.03
GCUGUCACCGGUGUAUUACCCUAGUGGUCGACCGGUCUGAUGAGUCUCUAAAGAGACGAAACAGC | 1.92 ± 0.051 | 1.67 ± 0.013
